Measurements published in patent US12416018B2, “Regulation of gene expression by aptamer-mediated modulation of alternative splicing” (MEIRAGTX GENE REGULATION LIMITED, priority 2015, dated 2025).

B1: Con 3: luciferase with IVS2Δ, altered 5′ss; SEQ ID NO: 3 (nucleic acid)
DNA: TTCTTCGCCAAAAGCAGTAAGTCTATGGGACCCTTGATGTTTTCTTTCCCCTTCTTTTCTATGGTTAAGTTCATGTCATAGGAAGGGGAGAAGTAACAGGGTACACATATTGACCAAATCAGGGTAATTTTGCATTTGTAATTTTAAAAAATGCTTTCTTCTTTTAATATACTTTTTTGTTTATCTTATTTCTAATACTTTCCCTAATCTCTTTCTTTCAGGGCAATAATGATACAATGTATCATGCCTCTTTGCACCATTCTAAAGAATAACAGTGATAATTTCTGGGTTAAGGCAATAGCAATATTTCTGCATATAAATATTTCTGCATATAAATTGTAACTGATGTAAGAGGTTTCATATTGCTAATAGCAGCTACAATCCAGCTACCATTCTGCTTTTATTTTATGGTTGGGATAAGGCTGGATTATTCTGAGTCCAAGCTAGGCCCTTTTGCTAATCATGTTCATACCTCTTATCTTCCTCCCACAGCTCTGATTGACAAATACG
modifications: Luci-IVS-Luci in construct Con3
B2: Con 1: luciferase gene with truncated human beta-globin intron 2 (IVS2Δ), original IVS2 splice sites; SEQ ID NO: 1 (nucleic acid)
DNA: GAGGTTCCATCTGCCAGGTATCAGGGTGAGTCTATGGGACCCTTGATGTTTTCTTTCCCCTTCTTTTCTATGGTTAAGTTCATGTCATAGGAAGGGGAGAAGTAACAGGGTACACATATTGACCAAATCAGGGTAATTTTGCATTTGTAATTTTAAAAAATGCTTTCTTCTTTTAATATACTTTTTTGTTTATCTTATTTCTAATACTTTCCCTAATCTCTTTCTTTCAGGGCAATAATGATACAATGTATCATGCCTCTTTGCACCATTCTAAAGAATAACAGTGATAATTTCTGGGTTAAGGCAATAGCAATATTTCTGCATATAAATATTTCTGCATATAAATTGTAACTGATGTAAGAGGTTTCATATTGCTAATAGCAGCTACAATCCAGCTACCATTCTGCTTTTATTTTATGGTTGGGATAAGGCTGGATTATTCTGAGTCCAAGCTAGGCCCTTTTGCTAATCATGTTCATACCTCTTATCTTCCTCCCACAGCAAGGATATGGGCTCACTGAGACTACATCAGCTATTCT
modifications: Luci-IVS-Luci in construct Con1 Human beta- globin intron 2 containing a deletion (IVS2) is in lowercase and flanking luciferase sequence is in uppercase.
B3: Con 2: luciferase with IVS2Δ, altered 5′ss; SEQ ID NO: 2 (nucleic acid)
DNA: GATTACACCCGAGGGGGATGATAAAGTAAGCCTATGGGACCCTTGATGTTTTCTTTCCCCTTCTTTTCTATGGTTAAGTTCATGTCATAGGAAGGGGAGAAGTAACAGGGTACACATATTGACCAAATCAGGGTAATTTTGCATTTGTAATTTTAAAAAATGCTTTCTTCTTTTAATATACTTTTTTGTTTATCTTATTTCTAATACTTTCCCTAATCTCTTTCTTTCAGGGCAATAATGATACAATGTATCATGCCTCTTTGCACCATTCTAAAGAATAACAGTGATAATTTCTGGGTTAAGGCAATAGCAATATTTCTGCATATAAATATTTCTGCATATAAATTGTAACTGATGTAAGAGGTTTCATATTGCTAATAGCAGCTACAATCCAGCTACCATTCTGCTTTTATTTTATGGTTGGGATAAGGCTGGATTATTCTGAGTCCAAGCTAGGCCCTTTTGCTAATCATGTTCATACCTCTTATCTTCCTCCCACAGCCGGGCGCGGTCGGTAAAGT
modifications: Luci-IVS-Luci in construct Con2

System: firefly luciferase gene expression in HEK 293 cells
Test: Firefly luciferase assay of HEK 293 cells transfected with splicing / Intron-Exon-Intron constructs (no ligand)
Format: cell-based
Protocol: Transfection: 3.5×10^4 HEK 293 cells were plated in 96-well flat bottom plate the day before transfection. Plasmid DNA (500 ng) was added to a tube or a 96-well U-bottom plate. Separately, TransIT-293 reagent (Mirus; 1.4 uL) was added to 50 μL Opti-mem I media (Life Technologies), and allowed to sit for 5 minutes at room temperature (RT). Then, 50 μL of this diluted transfection reagent was added to the DNA, mixed, and incubated at room temperature (“RT”) for 20 min. Finally, 7 μL of this solution was added to a well of cells in the 96-well plate.
Firefly luciferase assay of cultured cells: 24 hours after media change, plates were removed from the incubator, and equilibrated to RT for several minutes on a lab bench, then aspirated. Glo-lysis buffer (Promega, 100 μL, RT) was added, and the plates allowed to remain at RT for at least 5 minutes. Then, the well contents were mixed by 50 μL trituration, and 20 μL of each sample was mixed with 20 μL of bright-glo reagent (Promega) that had been diluted to 10% in glo-lysis buffer. 96 wells were spaced on an opaque white 384-well plate. Following a 5 min incubation at RT, luminescence was measured using Tecan machine with 500 mSec read time. The luciferase activity was expressed as mean relative light unit (RLU)±S.D.
The constructs were verified by DNA sequencing (Genewiz). DNA was transfected in HEK 293 cells and assayed for luciferase activity as described in Example 1.
Sequences containing the DHFR exon 2 with native 3′ and 5′ ss sequences, in which the 5′ss was embedded in a hairpin structure were synthesized (IDT), and cloned into the indicated vector using Golden Gate cloning strategy (NEB). Constructs were transfected into HEK 293 cells and assayed for luciferase activity as described in Example 1.

Molecule | luciferase expression relative to control constructs (in words)
B1 | expression levels similar to Con 1 and Con 8
B2 | did not affect gene expression
B3 | expression levels similar to Con 1 and Con 8
